B1: TPR t1 (parent)
chain: GACCAAUCUGCCCUCAGAGCUCGAGAACAUCUUCGGAUGCAGAGGAGGCAGGCUUCGGUGGCGCGAUAGCGCCAACGUCCUCAACCUCCAAUGCAUCCCACCACAUGAUGAUGCCUGAAGAGCCUUGGUUUUUUG

Variants of: B1
Assay: polymerase ribozyme fitness, log enrichment relative to wild type (log ratio); higher = more active; in vitro selection for triplet polymerase activity
Method in brief: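 Mutant libraries for each subunit of a heterodimeric triplet polymerase ribozyme were made by PCR and then transcribed. Each library underwent one round of in vitro selection in triplicate: annealing with a biotinylated primer, the partner subunit and triplets, frozen incubation at −7 °C, gel excision of extended constructs, streptavidin-bead capture and RT-PCR. Input and output libraries were Illumina-sequenced, and only genotypes with ≥10 input reads and ≥1 read per output were kept. Fitness is the logarithm, base 2, of genotype enrichment over wild-type enrichment, computed from inverse-variance-weighted replicate averages.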

Variant | polymerase ribozyme fitness (log ratio)
C13U G48A G122U | 0.102
C13U C34U G52C | -4.17
C13G G36C C56A U78A A90G G135U | -4.08
C13U C22G G44A C56A | -5.28
C13G U96C | -2.28
C13U G47A C82G C123G U125A | -1.19
C13U A27C A83U A84C C86A | -3.39
C13G U59G G61U U112C | -1.62
C13U A41G G60A C94U C115U | -1.95
C13U C53U C114A G120C | -1.1
C13U G63A | -0.373
C13U A41U G63U | -2.71
C13U C56A C114U | -1.73
C13U C79A C104A | -2.96
C13U C20G C62G C104A G110U A121U | -6.79
C13U G42U A90U A95U | -1.89
C13U C56U C124G U131C | 2.69
C13U U21C G36C A50G C56A | -1.18
C13U G52U C85U | -2.32
C13U C64G U87G G120A C123G | -5.41
C13U G39A A103U C123U | -4.74
C13U A66G C76U C88U G128C | -3.51
C13U G61C C101A | -2.82
C13G G25A C56G A91G C99U G120U | -7.51

Variant | polymerase ribozyme fitness (log ratio)
C13U C15U | -2.01
C13U G60C G61A G117A | -2.25
C13U G19U A50G A91U | -2.58
C13U G71U | -0.508
C13U A66C U106A | -0.839
C13U G120U | 0.513
C13U U92G | -2.48
C13U G127C | -1.18
C13U C20U G51A A66G C72U U109A | -6.73
C13G G127U | -2.53
C13G G127C | -1.12
C13U C49U C79A C97G U109A | -7.98
C13U C72A | 0.891
C13U C72G | -0.128
C13G G45C C53U G63U C88A | -3.62
C13U G69A C82U | -2.59
C13G U96C C101A | -3.35
C13U C28A G47U | -4.54
C13U C73U G93C U106A A118G | -1.26
C13U G36U U133A | -1.43
C13U A90U G117C | -3.61
C13U C56U U81G A90G | -0.257
C13G G61A C82A | -2.32
C13U C56U C72G C80U C82U C86U U112C | -3.52

Variant | polymerase ribozyme fitness (log ratio)
C13U C70A C73U | -1.58
C13U G60A G69A U112G | -5.04
C13U A16C C73A A95U G117U C124G | -1.04
C13G G113U | -2.94
C13G U133A | -2.17
C13G G52C G71A | -3.97
C13G G44A | -2.85
C13U G44C A74C A111C | -0.273
C13G C123G | 1.77
C13U G36A C64U | -0.484
C13G U32C A37G C49U | -1.77
C13G G17U U38A C49G G61U | -4.63
C13U C15U A27C A29G C73U | -4.69
C13U A50U G77C | -1
C13U C73G | -0.465
C13U A46G A50U C53U U129C | -2.72
C13U G57C U78C | 0.238
C13G G63A G71A U112C | -5
C13U C79A A90C | -2.88
C13U C56U U92G G93C C115A G120A | -0.609
C13U C20A C72A | -2.75
C13U G19A A37G | -2.93
C13U G63A U96A | -1.68
C13U G71A U78G U87A U131A | -1.51

Variant | polymerase ribozyme fitness (log ratio)
C13U C28U C40U A74U C124A | -1.32
C13U C73G C82U | -1.5
C13U C56G C72A A105U | -2.1
C13U C79G A83G C89G | -4.49
C13G C124U | 0.0672
C13U G60A C114A U130C | -0.229
C13U G42U G71U U87A G120C | -1.77
C13U C86G | -0.454
C13U A16C A84U U129A | -3.48
C13U C64A | -6
C13U G42U C104U | -0.915
C13U A27U | -2.33
C13U A27C | -2.05
C13U G23A A26G G61A C79U U106C | -4.2
C13U C56U C97G G127A | -4.74
C13U G42U G48A | -1.13
C13U G42U C56U C114G C123A | -1.36
C13U C56U A121C U130G | 1.59
C13U A84U | -0.00977
C13U U33C A50G A84C C124G | -5.51
C13U C99U | -2.12
C13G G47U G77U | -3.79
C13U G48U G110C | -4.34
C13U C49A G71C G127C | -1.9

Variant | polymerase ribozyme fitness (log ratio)
C13G G36U C101U U112C | -1.75
C13G U78C A121C | 0.61
C13U A43C G71A C73G C82A C98G C102A A105U G117C | -6.52
C13G G71C U112C G117C U125C | -5.67
C13G G47A C88U C102U U116G C123A | -4.62
C13U A16C U106G | -2.43
C13U U78A C79A U129G | -3.68
C13U A24G C70A C73A C104U A111U | -6.33
C13U G39C G58A A118U G120U | 0.174
C13U C62A A118U G122A | -2.35
C13U C15A A91C | -4.3
C13G C124A G128U | -0.0372
C13U A24G G36U C53U C79G C98U C99A | -7.05
C13U G51C | -2.27
C13U G51U | -2.84
C13U A46U U54G A95U C123U | 1.11
C13U G25C U33G C70U U81A U109A | -6.3
C13U G47U C88U A90G U106G | -2.13
C13U G36C A74C | 0.0868
C13U G51A C56G C72A U78G C89U | -0.967
C13G G19U G71C U112C | -4.61
C13G G117C | -4.58
C13U C73G G117A C124A | 0.844
C13G G17U A18U C40G C56A G107A C114U | -6.86

Variant | polymerase ribozyme fitness (log ratio)
C13G G58U G60C G117U C123A | -2.6
C13U A43U U59G C72A C104U | -2.63
C13U G61U | 0.429
C13U U21C A27U A37U A50G C56A G69U A111C | -4.81
C13U C20A A27G G39A G60A C115A | -5.26
C13U U55G C72G A100C A111U | -4.67
C13U A18C A37C G39U G57A | -6.61
C13G G58C C64U U92C | -3.39
C13U A26U C40A U112A | -4.39
C13G G60A | -1.21
C13G G60U | -2.05
C13G G63U C72U | -2.72
C13U G19U G42U G60A G110U | -5.83
C13U C124A G128A | 0.853
C13U C85A A91C C104A G120C | -3.62
C13U G71U C79G U81A | -3.02
C13U A16C A91G C104U | -1.72
C13U C89G A90G G110C | -6.32
C13U C34A C64U A84C G113U | -4.89
C13G G57C C72U G113A | -2.96
C13U C20A | -2.74
C13U C20U | -0.561
C13U A16G A121U U129A | 1.78
C13U C31U A46G C72U | -4.32

Variant | polymerase ribozyme fitness (log ratio)
C13U A26G | -2.64
C13U G113U U125C | -1.89
C13G U33C C72U U81A C101G G110U U132A | -6.08
C13G G47A G63U U96G | -3.63
C13U A18U A43C U59C G71U A105U | -4.76
C13U G93U | -0.472
C13U G93A | -0.513
C13U C22U C86U | -4.45
C13G G47U C73U C114A | -4.1
C13U U32G | -5.28
C13U G39U A41G C72U U96G G117A | -3.31
C13U G47A U78C G120A C123U U125A G128A | -0.365
C13U C49A | -0.597
C13U G69A | -2.03
C13U G51U G60U C97U A119G G127U | -2.62
C13U G128A | -1.67
C13U G77A | 0.00416
C13U C15U C20U U81A A90C C115U | -4.72
C13U A37C G57U | -0.0732
C13G G44A G63U G120U C123G | -0.471
C13U G120C C124U | 1.91
C13G G47A C72U G110C | -7.11
C13U G63A C101U | -0.511

Reference: the RNAGym collection of RNA variant scans (doi:10.1073/pnas.2313332121)
